# Residues, ends and D or L forms follow the SMILES beside them. *: point of attachment. X1 = C[C@H](Cn1cnc2c(N)ncnc21)OCP(=O)(O)OCCS*; Palmitoyl = CCCCCCCCCCCCCCCC(=O)*
# Assays:
# [1] = test system: HBV; type: cell-based, hepatitis B virus; settings: HepAD38 cells, qPCR of cellular supernatant; FIG. 5 legend; read-out: IC50, reduction of HBV production
# Experimental: Anti-HBV efficacy was evaluated on HepAD38 cells, using an adaptation of a procedure described in Ladner, Antimicrob. Agents Chemother. 41: 1715-20, 1997, incorporated herein by reference. HepAD38 cells were plated on collagen coated 96-well flat-bottomed plates at a density of 6×10^4 cells/well and grown for 3 days in the presence of 200 μL of Ham's F-12K (Kaighn's) Medium supplemented with 10% fetal bovine serum (FBS), 1% of an antibiotic solution (penicillin and streptomycin), and 0.3 mg/mL tetracycline at 37° C. in 5% carbon dioxide. On day zero the cells were washed with PBS and treated with tetracycline-free F-12K medium containing TFV, TFV-PA2, or TFV-PA3 (180 μL of medium supplemented with 20 μL of 10× concentration therapeutic solution to give 200 μL of medium at the final therapeutic concentration). Each therapeutic was screened at a minimum of five concentrations in quadruplicate. Water treated cells (180 μL of medium supplemented with 20 μL of H2O) were used as the negative control. On day three the medium was removed and replaced with 200 μL of fresh tetracycline-free medium containing the test compound at the appropriate concentration. […] HBV DNA was quantified by qPCR, using Integrated DNA Technologies PrimeTime Gene Expression Master Mix (Integrated DNA Technologies, Coralville, IA) and HBV TaqMan primer/probe (20×, Assay ID Vi03453405_s1, ThermoFisher Scientific, Pittsburgh, PA). A serial dilution of gBlocks Gene Fragments (Integrated DNA Technologies, Coralville, IA) of known HBV copy number was used as the standard for the absolute quantification of DNA copy number from cycle threshold values. […] Percent HBV production for each therapeutic concentration was determined based on average number of copies of HBV DNA produced by water treated cells and averaged between the three biological repeats of the assay before being plotted against concentration. […]
# [2] = cited from earlier work
# [3] = In vivo pharmacokinetics and biodistribution
# Experimental: Samples were dried under a N2 stream, reconstituted in 100 μl of 80% v/v LC-MS grade MeOH/H2O. 10 μl of the sample solution was injected into Waters Acquity/Xevo-G2 UPLC/MS system (Milford, MA) for analysis.
# For tissue analysis, an optimized amount of tissue sample was processed using a tissue homogenizer in 5 volumes of 90% v/v LC/MS grade MeCN/H2O. 100 μL Tissue homogenate was mixed with 90 μL of 90% v/v LC/MS grade MeCN/H2O, 10 μL of LC-MS-grade water, and 10 μL 500 ng/ml Emtricitabine solution (as IS). After extraction, 10 μl of the sample solution was injected into Waters Acquity/Xevo-G2 UPLC/MS system (Milford, MA) for analysis.
# [4] = Stability of TFV-PAs and redox triggered release of free TFV (with/without DTT); type: in vitro ADME; settings: 37° C.; for prodrug stability without DTT: 100 μM in 1× PBS, absence of DTT; for TFV released: 100 μM, 10 mM DTT, 1× PBS
# Experimental: Stability of the TFV-PAs and redox triggered release of free TFV was assessed by aging TFV-PA solutions in the presence and absence of 10 mM dithiothreitol (DTT). 200 µM solutions of TFV-PA2 and TFV-PA3 solutions were prepared using deionized H2O and allowed to age at RT for 24 hours. A 20 mM solution of DTT was prepared by diluting a stock 1 M DTT solution with 2× phosphate buffered solution (PBS). 500 μL of 2× PBS was added to an equal volume of each TFV-PA solution to give the DTT negative samples with a final TFV-PA concentration of 100 μM in 1× PBS. 500 μL of 20 mM DTT solution was added to an equal volume of each TFV-PA solution to give the DTT positive samples with a final TFV-PA concentration of 100 μM and 10 mM DTT in 1× PBS. Each experimental condition was prepared in triplicate. Solutions were allowed to age at 37° C. and 50 μL samples were collected at predetermined time points (0, 1, 2, 4, 8, 12, 24, 48, and 72 h), flash frozen in liquid nitrogen, and then stored in a −20° C. freezer. 2 μL of hydrochloric acid was added to the DTT positive samples upon collection to quench the reaction. Samples were thawed and immediately analyzed using the Agilent Infinity II RP-HPLC. The relative proportions of remaining TFV-PA were determined using the ratio of the AUC of the TFV-PA peak in the 260 nm chromatograph to that of the 0 hour samples. For select samples, 1 μL of solution was diluted in 900 μL MeOH and 100 μL 0.1% aq. formic acid and subjected to ESI MS to identify the molecules in the sample.
# [5] = In vitro prodrug release from TFV-PA hydrogels; type: physicochemical; settings: day 30, in vitro
# Experimental: To study gel release, 5 mM and 10 mM solutions of TFV-PA2 and TFV-PA3 were prepared using deionized water and allowed to age at RT for 48 hours. 45 μL of each solution was aliquoted into three 0.5 mL microcentrifuge tubes and 5 μL of 10× PBS was added to each vial to form a hydrogel with a final concentration of 1× PBS. Gels were allowed to set for 5-10 minutes before 60 μL of 1× PBS was added to the surface as the release media. The vials were then allowed to age at 37° C. Every 2 days, 50 μL of gel release supernatant was collected and replaced with an equal volume of fresh 1× PBS. Samples were frozen and stored at −20° C. for future analysis by RP-HPLC. On select days, 5 μL of release supernatant was collected 24 hours after supernatant exchange and used to prepare a negatively stained transmission electron microscope grid for analysis with the Talos transmission electron microscope. The grid was prepared as described above, except the sample was blotted with 5 μL deionized water (wicked immediately) after the sample was wicked away to remove excess salts from the PBS. Once the release experiment was complete, samples were thawed and 1-2 mg of TCEP was added to 25 μL sample solution and an equal volume of acetonitrile, then vortexed and sonicated at 37° C. for 10 minutes to ensure complete cleavage of the TFV moiety from the TFV-PAs. […]
SMILES,IC50 [1],log P [2],"drug levels after free drug administration ([3]; after three days, mice)","MRT ([3]; male, Balb/cJ, mouse, in vivo, sc, 75 mg/kg)",prodrug stability without DTT [4],TFV released ([4]; after 1 hour),TFV released ([4]; by 24 hours),initial prodrugs remaining in hydrogel [5],TFV released ([4]; after 4 hours)
"C[C@H](Cn1cnc2c(N)ncnc21)OCP(=O)(O)O [TFV, tenofovir, reference compound]",1100 nM,−2.5,–,–,–,–,–,–,–
"Nc1ccn([C@@H]2CS[C@H](CO)O2)c(=O)n1 [3TC, 2′,3′-Dideoxy-3′-Thiacytidine]",–,–,below detection,50.4 h,–,–,–,–,–
CCCCCCCCCCCCCCCC(=O)N[C@H](C(=O)N[C@H](C(=O)N[C@@H](CSSCCOP(=O)(O)CO[C@H](C)Cn1cnc2c(N)ncnc21)C(=O)N[C@@H](CCC(=O)O)C(=O)O)C(C)C)C(C)C [TFV-PA2] (Palmitoyl-VVC(X1)E-OH),1500 nM,–,–,–,stable at 37 °C and in 1× PBS for 3 days,more than 90%,all TFV released,–,–
CCCCCCCCCCCCCCCC(=O)N[C@H](C(=O)N[C@H](C(=O)N[C@H](C(=O)N[C@@H](CSSCCOP(=O)(O)CO[C@H](C)Cn1cnc2c(N)ncnc21)C(=O)N[C@@H](CCC(=O)O)C(=O)O)C(C)C)C(C)C)C(C)C [TFV-PA3] (Palmitoyl-VVVC(X1)E-OH),250 nM,–,–,–,stable at 37 °C and in 1× PBS for 3 days,–,all TFV released,more than 80%,more than 70%

# Source: patent publication US11998609B2, “Self-assembling antiviral prodrugs” (priority 2021, dated 2024)
